Data taken from patent US20120276119A1 (IMMUNOGEN, published 2012).

T1: Human CD37 (human, UniProt P11049 1-278)
T1 sequence: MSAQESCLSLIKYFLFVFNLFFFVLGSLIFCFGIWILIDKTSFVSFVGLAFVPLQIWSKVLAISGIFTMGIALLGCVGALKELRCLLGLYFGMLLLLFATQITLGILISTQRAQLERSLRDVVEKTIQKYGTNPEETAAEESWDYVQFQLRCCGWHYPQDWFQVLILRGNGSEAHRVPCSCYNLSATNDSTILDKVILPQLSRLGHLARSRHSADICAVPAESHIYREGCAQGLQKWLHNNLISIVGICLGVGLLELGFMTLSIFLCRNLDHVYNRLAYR

T2: Murine CD37 (murine, UniProt Q61470 1-281)
T2 construct: Endogenous muCD37 on 300-19 murine pre-B cells and on wild type mouse spleen B cells; also called muCD37
T2 sequence: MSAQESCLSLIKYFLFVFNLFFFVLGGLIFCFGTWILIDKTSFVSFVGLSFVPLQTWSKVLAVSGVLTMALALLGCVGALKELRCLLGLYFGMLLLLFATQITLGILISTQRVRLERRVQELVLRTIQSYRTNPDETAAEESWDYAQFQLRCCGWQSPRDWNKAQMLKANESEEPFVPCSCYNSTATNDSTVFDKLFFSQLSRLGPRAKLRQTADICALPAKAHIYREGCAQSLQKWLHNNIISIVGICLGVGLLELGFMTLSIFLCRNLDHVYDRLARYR


Experiments:
Human CD37 [1] = target: T1, Human CD37; test: cell-based or functional assay
Murine CD37 = target: T2, Murine CD37; test: flow cytometry titration on 300-19 murine pre-B cells expressing muCD37; anti-muIgG-PE detection; EC50 of the curve taken as the apparent Kd
Method: Cells were then washed and counterstained with anti muIgG-PE conjugate (Jackson Immunoresearch, West Grove, Pa.) for 30 minutes at 4° C. The cells were finally washed, fixed in formalin and analyzed by flow cytometry using a FACSarray (BD Bioscience, San Jose, Calif.). The flow cytometry data were analyzed using FlowJo (Tree Star Inc., Ashland, Oreg.) and the geometric mean fluorescence intensity was plotted against the antibody concentration in a semi-log plot (FIG. 8). A dose-response curve was generated by non-linear regression and the EC50 value of the curve, which corresponds to the apparent dissociation constant (Kd) of the antibody, was calculated using GraphPad Prism (GraphPad Software Inc., La Jolla, Calif.).

Human CD37 [2] = target: T1, Human CD37; test: flow cytometry on human tumor cells expressing human CD37

Binder | in vitro depletion of B-cells, whole human blood, 10 µg/mL, one donor (Human CD37 [1]) [%] | EC50 of in vitro B-cell depletion, purified human PBMCs, two donors (Human CD37 [1]) [µg/mL] | Kd (Murine CD37) [nM] | binding result (Human CD37 [2])
huCD37-50 (antibody, human IgG1, kappa, V domains shown) VH: QVQLQESGPGLLKPSQSLSLTCTVSGYSITSGFAWHWIRQHPGNKLEWMGYILYSGSTVYSPSLKSRISITRDTSKNHFFLQLNSVTAADTATYYCARGYYGYGAWFAYWGQGTLVTVSA VL: EIVLTQSPATMSASPGERVTMTCSATSSVTYMHWYQQKPGQSPKRWIYDTSNLPYGVPARFSGSGSGTSYSLTISSMEAEDAATYYCQQWSDNPPTFGQGTKLEIKR | ~40 |  |  | 
huCD37-50-SMCC-DM1 (antibody, human IgG1, kappa, V domains shown, DM1 maytansinoid linked via SMCC; sites, chain and drug load in the assay not stated) VH: QVQLQESGPGLLKPSQSLSLTCTVSGYSITSGFAWHWIRQHPGNKLEWMGYILYSGSTVYSPSLKSRISITRDTSKNHFFLQLNSVTAADTATYYCARGYYGYGAWFAYWGQGTLVTVSA VL: EIVLTQSPATMSASPGERVTMTCSATSSVTYMHWYQQKPGQSPKRWIYDTSNLPYGVPARFSGSGSGTSYSLTISSMEAEDAATYYCQQWSDNPPTFGQGTKLEIKR | ~40 |  |  | 
huCD37-3 (antibody, V domains shown) VH: QVQVQESGPGLVAPSQTLSITCTVSGFSLTTSGVSWVRQPPGKGLEWLGVIWGDGSTNYHPSLKSRLSIKKDHSKSQVFLKLNSLTAADTATYYCAKGGYSLAHWGQGTLVTVSS VL: DIQMTQSPSSLSVSVGERVTITCRASENIRSNLAWYQQKPGKSPKLLVNVATNLADGVPSRFSGSGSGTDYSLKINSLQPEDFGTYYCQHYWGTTWTFGQGTKLEIKR | ~40 |  |  | 
huCD37-3-SMCC-DM1 (antibody, V domains shown, DM1 maytansinoid linked via SMCC; sites, chain and drug load in the assay not stated) VH: QVQVQESGPGLVAPSQTLSITCTVSGFSLTTSGVSWVRQPPGKGLEWLGVIWGDGSTNYHPSLKSRLSIKKDHSKSQVFLKLNSLTAADTATYYCAKGGYSLAHWGQGTLVTVSS VL: DIQMTQSPSSLSVSVGERVTITCRASENIRSNLAWYQQKPGKSPKLLVNVATNLADGVPSRFSGSGSGTDYSLKINSLQPEDFGTYYCQHYWGTTWTFGQGTKLEIKR | ~40 | 0.04 to 0.075 |  | 
anti-muCD37 monoclonal antibody clone 252-3 (antibody, mouse IgG2a, V domains shown) VH: EVQVVESGGDLVKPGGSLKLSCAASGFTFSSYGMSWVRQTPDKRLEWVATISSGGSYTYSPDSVKGRFTISRDNAKKTLYLQMSSLKSEDTAMYYCARHSYYDTSVDYWGQGTSVTVSS VL: DIQMTQTTSSLSASLGDRVTISCRASQDISNYLNWYQQKPDGTVKLLIYYTSKLHSGVPSRFSGSGSGTDYSLTISNLEQEDIATYFCQQGNALPWTFGGGTKLELKR |  |  | 14 | no binding
